For this test, the target named is T1, Rrp44 D171N/D551N (S. cerevisiae, UniProt Q08162 1-1001, D171N | D551N).
T1 sequence: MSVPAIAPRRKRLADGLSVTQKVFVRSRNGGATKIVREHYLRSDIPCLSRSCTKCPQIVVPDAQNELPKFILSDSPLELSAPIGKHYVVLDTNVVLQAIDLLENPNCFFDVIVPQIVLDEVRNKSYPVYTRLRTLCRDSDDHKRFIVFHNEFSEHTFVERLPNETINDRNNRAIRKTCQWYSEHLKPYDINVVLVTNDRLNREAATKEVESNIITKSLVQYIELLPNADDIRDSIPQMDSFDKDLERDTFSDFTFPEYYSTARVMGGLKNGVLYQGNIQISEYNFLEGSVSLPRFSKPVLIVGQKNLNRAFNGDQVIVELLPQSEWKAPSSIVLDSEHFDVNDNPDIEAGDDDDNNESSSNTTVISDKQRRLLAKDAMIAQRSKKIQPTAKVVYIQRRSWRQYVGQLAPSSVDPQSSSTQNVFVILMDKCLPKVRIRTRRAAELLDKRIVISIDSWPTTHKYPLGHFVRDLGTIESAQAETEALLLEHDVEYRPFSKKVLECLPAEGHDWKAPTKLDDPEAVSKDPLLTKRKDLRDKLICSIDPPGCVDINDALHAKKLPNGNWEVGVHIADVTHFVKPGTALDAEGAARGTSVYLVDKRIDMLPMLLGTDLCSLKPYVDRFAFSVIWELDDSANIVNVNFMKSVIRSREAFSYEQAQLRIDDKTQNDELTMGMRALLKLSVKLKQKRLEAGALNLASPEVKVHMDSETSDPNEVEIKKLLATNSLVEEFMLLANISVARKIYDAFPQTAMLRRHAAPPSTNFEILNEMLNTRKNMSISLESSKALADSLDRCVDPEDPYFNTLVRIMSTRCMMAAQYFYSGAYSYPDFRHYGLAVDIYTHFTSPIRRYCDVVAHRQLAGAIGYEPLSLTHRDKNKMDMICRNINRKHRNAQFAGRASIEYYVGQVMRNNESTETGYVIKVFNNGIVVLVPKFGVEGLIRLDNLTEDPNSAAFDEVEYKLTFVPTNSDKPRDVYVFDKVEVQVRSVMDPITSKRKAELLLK
In words: crystal structure.

This note sets out measurements from PMC5115963 (Molecular cell, 2016).

B1: Rrp43 (natural protein, S. cerevisiae)
chain: MAESTTLETIEIHPITFPPEVLARISPELSLQRHLSLGIRPCLRKYEEFRDVAIENNTLSRYADAGNIDTKNNILGSNVLKSGKTIVITSITGGIIEETSAAIKDLDDFGEEELFEVTKEEDIIANYASVYPVVEVERGRVGACTDEEMTISQKLHDSILHSRILPKKALKVKAGVRSANEDGTFSVLYPDELEDDTLNETNLKMKRKWSYVLYAKIVVLSRTGPVFDLCWNSLMYALQSVKLPRAFIDERASDLRMTIRTRGRSATIRETYEIICDQTKSVPLMINAKNIAFASNYGIVELDPECQLQNSDNSEEEEVDIDMDKLNTVLIADLDTEAEETSIHSTISILAAPSGNYKQLTLVGGGAKITPEMIKRSLLLSRVRADDLSTRFNI
As to B1, the binding result is reported as “binds”.
